The text below walks through data of the supplement of paper PMC10724198.

± gives the standard deviation of the averaged measurements.
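Also: PSI is a weighted mean of sequencing reads over stability bins, variants kept only with over 10 reads, mCherry proximal and sfGFP distal, peptide attached via GGGS linker.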

The data set relates to Saccharomyces cerevisiae. Briefly: protein stability index of tFT-peptide fusion (C-terminal peptide) (PSI (0-1 scale)); higher = more stable (slower turnover). The conditions noted are these: genetic background: wild type; temperature: 30 C.
Regarding QGGGGGGVCGMV, the protein stability index was 0.721 ± 0.011. The value for QGLSFVSVSPRP was 0.795 ± 0.029; that for QGPPPTPASHGP was 0.672 ± 0.026; that for QGRPPADRATAV was 0.755 ± 0.029. In turn, QGSAGRHVRTNL had a protein stability index of 0.701 ± 0.06.

QIISSVFEATSY came in with a protein stability index of 0.606 ± 0.037. The sequence QKAQLISQVNTG registered a protein stability index of 0.6682 ± 0.0065. QKDLVGSKSEYE returned a protein stability index of 0.735 ± 0.058.

Sequence QKGGGGEVGAEG returned a protein stability index of 0.699 ± 0.066. Sequence QKIIKKIQTIVD yielded a protein stability index of 0.697 ± 0.027. Under QKKKKKKKRKKT stands 0.59 ± 0.062.

QKKKKRKDKRTK registered a protein stability index of 0.7067 ± 0.0053.

In the case of QKPKDKKKRTKE, the protein stability index was determined as 0.679 ± 0.05.

In the case of QLETAIEEKNNE, the protein stability index stood at 0.704 ± 0.0087. The value for QLFAYFLGAVIL was 0.611 ± 0.023. QLGRVSRLVGVC had a protein stability index of 0.537 ± 0.0081. Sequence QLLCLFSIPRSA showed a protein stability index of 0.7241 ± 0.0043. QLPALPPLHSSP displayed a protein stability index of 0.6982 ± 0.0022. QLVCCAKCGAVG: the protein stability index is 0.665 ± 0.035. Under QLVSNNCSLVMC stands 0.532 ± 0.02; under QMGGGGEVGAEG, 0.724 ± 0.009.

For QMSAATLLFSRL, the protein stability index was 0.734 ± 0.029. Under QMTSRVPIGRLY stands 0.696 ± 0.0035.

Sequence QNKKKEKKQEIQ had a protein stability index of 0.7 ± 0.042. The value for QPGPPPRPHVQP was 0.676 ± 0.048; that for QPGTRRNNHIQV was 0.704 ± 0.026; that for QPLSFAYMPPLS was 0.653 ± 0.033. The value for QPRVEYSSYWAV was 0.644 ± 0.034.

QQKKKTKGNNEV: the protein stability index is 0.661 ± 0.065. Sequence QQKKPIRKELRN registered a protein stability index of 0.702 ± 0.053.

Consider QREKTRSWDIET, for which the protein stability index amounted to 0.686 ± 0.041.

In turn, QREYHENKIKYI showed a protein stability index of 0.563 ± 0.066. The value for QRKYTLCVRPFP was 0.697 ± 0.037; that for QRSPNRISPADY was 0.798 ± 0.11; that for QRVIELVLISNM was 0.539 ± 0.043. Under QRWTAGTQIRPV stands 0.706 ± 0.0086. QSKANIVEEIWI: the protein stability index came out at 0.688 ± 0.02. Under QSPPDDRPPPHP stands 0.676 ± 0.029; under QSPRLTSGPQPL, 0.652 ± 0.022.

QSQGTRLAPVTR returned a protein stability index of 0.729 ± 0.068.

As to QTKKKLTQSQRT, the protein stability index turned out to be 0.694 ± 0.019. In turn, QTRDFRRASYAP displayed a protein stability index of 0.646 ± 0.019.

In turn, QTVPGKNLDGDL displayed a protein stability index of 0.714 ± 0.013. The value for QVFITGHQLCVM was 0.535 ± 0.0064. As to QVGPSPCHPFTL, the protein stability index was determined as 0.684 ± 0.0091. Under QVWLLRPAPARV stands 0.598 ± 0.12; under QYQDRHIDRSGR, 0.657 ± 0.078. Turning to RAARGQQGGPVA, the protein stability index amounted to 0.651 ± 0.041.

As to RADIRYCNCRGQ, the protein stability index stood at 0.607 ± 0.045.

As for RADLLQRGGDRI, the protein stability index was determined as 0.677 ± 0.093. Regarding RAEGGDSGVAAL, the protein stability index was 0.703 ± 0.011. The value for RAFASLALAILP was 0.623 ± 0.038; that for RAFEGGRHCRAG was 0.67 ± 0.049; that for RAGALYLGICDT was 0.738 ± 0.069. Turning to RAGCWFAGYSRV, the protein stability index came to 0.721 ± 0.078. Under RAGVFLPSGVAI stands 0.663 ± 0.011; under RAGVRWGGGGGG, 0.67 ± 0.014. The sequence RAHLVSAPPQNF gave a protein stability index of 0.7074 ± 0.0033.

For the sequence RAHSGSTCCGAQ, the protein stability index worked out at 0.698 ± 0.04. RAMWAGKGGDGW displayed a protein stability index of 0.738 ± 0.086.

As to RAPDHRPGRLQK, the protein stability index worked out at 0.724 ± 0.013. The value for RAPGPGQIRLVQ was 0.72 ± 0.035; that for RARCFGGFCAIP was 0.724 ± 0.088; that for RARHDGWRHLYE was 0.707 ± 0.055.

As for RASLTPSDHLFF, the protein stability index came out at 0.766 ± 0.02. Under RASPPPPPPPPP stands 0.658 ± 0.045; under RASPTTILCKRQ, 0.678 ± 0.025. The value for RAVLSNRVEERI was 0.696 ± 0.022; that for RAYATPIPRSAI was 0.655 ± 0.046.

The sequence RCCGLWVDGFLL had a protein stability index of 0.743 ± 0.045.

In turn, RCCLDLLIFPCS registered a protein stability index of 0.735 ± 0.15. The value for RCERKTGHHYRT was 0.637 ± 0.072; that for RCETHKDHESNE was 0.725 ± 0.014; that for RCRGPVYIPPGT was 0.654 ± 0.027. The value for RCRGTEGWLDSG was 0.63 ± 0.009; that for RDAPLGRRLRPV was 0.678 ± 0.021. Under RDGDVRTLMGWD stands 0.732 ± 0.037; under RDGSNSNGKKKK, 0.6 ± 0.051; under RDLSEGRSPLGI, 0.661 ± 0.081.

Take RDPSIVDHTVVT: the protein stability index was determined as 0.735 ± 0.041.
